The results in this text go back to patent US20210163598A1 (BEIJING PROTEOME RESEARCH CENTER, published 2021).

In assay [1] the target is BTN3A2 overexpressed on BT474 cells (BT474-BTN3A2) (Homo sapiens (Human), UniProt P78410 30-334). The assay can be described thus: flow cytometric adhesion assay, murine LSECtin-Fc detected with anti-IgG. The text has this: (§1) 3. Each cell in the step 2 was obtained by digestion and collection, and then was adhered to human LSECtin protein (R&D, 2947-CL) and mouse LSECtin-Fc protein, respectively, and the human LSECtin adhesion rate was detected by mouse anti-human LSECtin antibody CCB059. […] mouse LSECtin adhesion rate was detected by anti-IgG (Biolegend, 405307), and the adhesion ratio was detected by flow cytometry. Details of adhesion assay have been published in the method of “Tang L, Yang J, Tang X, et al. The DC-SIGN family member LSECtin is a novel ligand of CD44 on activated T cells[J], European journal of immunology. 2010, 40(4): 1185-1191”.
A general note: In flow cytometry, cells or beads pass a laser one at a time.

Assay [2] concerns the target T1, BTN3A1 overexpressed on BT474 cells (BT474-BTN3A1) (UniProt O00481 30-513, limits assumed).
T1 construct: whole, on cells; Expressed from pIRES2-EGFP-BTN3A1 in BT474 cells
The description is as above.
Excerpt: as §1

Assay [3] has as its target T1, BTN3A1 overexpressed on BT474 cells …. The assay is described as follows: flow cytometric adhesion assay, human LSECtin detected with antibody CCB059.
Excerpt: as §1

T1 sequence (O00481 30-513 limits assumed): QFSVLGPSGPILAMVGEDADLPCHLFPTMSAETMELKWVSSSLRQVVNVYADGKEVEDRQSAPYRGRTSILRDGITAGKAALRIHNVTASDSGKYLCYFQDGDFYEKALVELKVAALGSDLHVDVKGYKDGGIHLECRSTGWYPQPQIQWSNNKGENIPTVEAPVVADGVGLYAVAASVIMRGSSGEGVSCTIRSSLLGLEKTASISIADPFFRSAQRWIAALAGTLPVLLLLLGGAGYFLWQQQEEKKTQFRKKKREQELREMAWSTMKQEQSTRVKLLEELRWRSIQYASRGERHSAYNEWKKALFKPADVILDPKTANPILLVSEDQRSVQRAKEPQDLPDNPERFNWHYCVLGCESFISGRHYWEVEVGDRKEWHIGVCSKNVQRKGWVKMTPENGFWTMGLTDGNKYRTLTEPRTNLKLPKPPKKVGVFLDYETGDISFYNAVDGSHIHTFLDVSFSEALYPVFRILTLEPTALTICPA
Sequence of BTN3A2 overexpressed on BT474 cells (BT474-BTN3A2) (P78410 30-334 limits assumed): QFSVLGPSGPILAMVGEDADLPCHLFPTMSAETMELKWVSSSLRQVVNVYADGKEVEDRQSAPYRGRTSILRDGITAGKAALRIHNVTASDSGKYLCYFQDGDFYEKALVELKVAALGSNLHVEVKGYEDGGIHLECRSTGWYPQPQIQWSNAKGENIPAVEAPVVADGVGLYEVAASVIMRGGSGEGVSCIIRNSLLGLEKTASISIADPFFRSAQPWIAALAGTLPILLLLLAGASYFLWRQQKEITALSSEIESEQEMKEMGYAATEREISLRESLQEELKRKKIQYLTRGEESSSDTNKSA

B1: mouse LSECtin-Fc protein (Fc fusion, UniProt Q8BNX1 52-294, looked up)
chain: LLSSASSKLRVLLSHQDLLRTNASEQKMTLSSLKDDIGACRNCCSVTKAQLQTTLAEFKDIQAKLMEQESILKELQERVTQDLAKASRDRENIRSELFQALEAVKRQNSSCEQCPPSWLPFQGSCYYFSETQATWDTAQSYCGGQGAHLVIVRGLNEQGFLSQHTRGRGYWLGLRAVRHLNKIQGYRWVDGASLNFSHWNSGEPNDSRGHEDCIMMLHSGLWNDAPCTNERDGWICEKRSSCY
notes: also called murine LSECtin-Fc; murine LSECtin; not shown: Fc part
B1: the binding result in assay [1] and in assay [2] was “no binding” throughout.

B2: human LSECtin protein (R&D, 2947-CL) (ligand)
chain: SKASTERAALLDGHDLLRTNASKQTAALGALKEEVGDCHSCCSGTQAQLQTTRAELGEAQAKLMEQESALRELRERVTQGLAEAGRGREDVRTELFRALEAVRLQNNSCEPCPTSWLSFEGSCYFFSVPKTTWAAAQDHCADASAHLVIVGGLDEQGFLTRNTRGRGYWLGLRAVRHLGKVQGYQWVDGVSLSFSHWNQGEPNDAWGRENCVMMLHTGLWNDAPCDSEKDGWICEKRHNC
notes: Bought recombinant protein (R&D 2947-CL); also called human recombinant protein LSECtin; Liver Sinusoidal Endothelial Cells lectin
Consider B2, for which the binding result in assay [3] is “no binding”.
